We go through three molecules from publication PMC3098231.

The data set addresses human alpha-thrombin (Homo sapiens, UniProt P00734;P00734 328-363;364-622). The data set can be described thus: SPR imaging (k-1/k1); 50 nM thrombin; 20 mM Tris-HCl pH 7.4, 140 mM NaCl, 5 mM KCl, 1 mM CaCl2, 1 mM MgCl2; SPR at 25 C; EMSA in the same selection buffer, 14% native PAGE in 1X Tris-glycine at 4 C. On the technique in general: A gel shift assay detects complexes by their altered migration in electrophoresis.
ACACGCGCATGCGGTTGGTGTGGTTTGGCATGCGCCACA (structured_DNA, 3'-thiol for SPR) [Motif Ia rank 3 hairpin] displayed a Kd of 170 nM.
On to ACACGCGCATGCGGTTGGTGCGGTTGGGCATGCGCCACA (structured_DNA, 3'-thiol for SPR) [Motif Ia rank 25 hairpin], for which the affinity, expressed as Kd, was 2200 nM.
For ACACGCGCATGCGGTTGGTTTGGTTGGGCATGCGCCACA (structured_DNA, 3'-thiol for SPR) [Motif Ia rank 9 hairpin] the value was 650 nM.

The Kd is the concentration at which binding is half-saturated.
